Laboratory results as given in the FLAb antibody collection (doi:10.7554/elife.23156).

B1: scFv; the commonest letter at each place (parent)
chain 1: EVKLDETGGGLVQPGRPMKLSCVASGFTFSDYWMNWVRQSPEKGLEWVAQIRNKPYNYETYYSDSVKGRFTISRDDSKSSVYLQMNNLRVEDMGIYYCTGSYYGMDYWGQGTSVTVS
chain 2: DVVMTQTPLSLPVSLGDQASISCRSSQSLVHSNGNTYLRWYLQKPGQSPKVLIYKVSNRFSGVPDRFSGSGSGTDFTLKISRVEAEDLGVYFCSQSTHVPWTFGGGTKLEIK

Columns and labels:
fluorescein = variants of: B1; experiment: Kd (Tite-Seq); details: with fluorescein; format: scFv 4-4-20, heavy + light
[1] = variants of: B1; experiment: yeast surface expression (ratio to wild type); higher = more expressed; details: format: scFv 4-4-20, heavy + light

Row | Variant | Kd (fluorescein) [µM] | yeast surface expression [1]
1 | chain 1 Y32A M34E V37C | ≥ 10 | 0.299
2 | chain 1 W33N N35T | ≥ 10 | 0.979
3 | chain 1 W33N N35M | ≥ 10 | 0.792
4 | chain 1 W33S M34T | ≥ 10 | 0.463
5 | chain 1 W36T V37D | ≥ 10 | 0.28
6 | chain 1 W36T V37M | ≥ 10 | 0.422
7 | chain 1 W36T V37L | ≥ 10 | 0.507
8 | chain 1 W36Q | ≥ 10 | 0.308
9 | chain 1 W36H | ≥ 10 | 0.522
10 | chain 1 W36C | ≥ 10 | 0.561
11 | chain 1 W36V | ≥ 10 | 0.715
12 | chain 1 W36L | ≥ 10 | 0.686
13 | chain 1 W36R | 8.34 | 0.957
14 | chain 1 W36S | ≥ 10 | 0.813
15 | chain 1 W36Y | 0.00532 | 0.923
16 | chain 1 W36M | 0.0259 | 0.721
17 | chain 1 W36N | ≥ 10 | 0.978
18 | chain 1 W36K | ≥ 10 | 0.794
19 | chain 1 W36A | ≥ 10 | 0.44
20 | chain 1 W36E | ≥ 10 | 0.765
21 | chain 1 W36D | ≥ 10 | 0.512
22 | chain 1 W36P | ≥ 10 | 0.871
23 | chain 1 W36F | 0.0015 | 0.954
24 | chain 1 W36T | ≥ 10 | 0.497
25 | chain 1 W36I | 1.33 | 0.756

Row | Variant | Kd (fluorescein) [µM] | yeast surface expression [1]
26 | chain 1 W36G | ≥ 10 | 0.534
27 | chain 1 Y32C V37Q | ≥ 10 | 0.692
28 | chain 1 Y32A W36N | ≥ 10 | 1.17
29 | chain 1 W108D G109I | ≥ 10 | 0.209
30 | chain 1 W108D G109Y | ≥ 10 | 0.271
31 | chain 1 W33Q N35Y | ≥ 10 | 0.315
32 | chain 1 W33Q N35W | ≥ 10 | 1.01
33 | chain 1 W33Q N35E | ≥ 10 | 0.594
34 | chain 1 Y32A W33C | ≥ 10 | 0.924
35 | chain 1 W33T | ≥ 10 | 1.02
36 | chain 1 W33P | ≥ 10 | 0.803
37 | chain 1 W33S | ≥ 10 | 0.845
38 | chain 1 W33R | ≥ 10 | 0.877
39 | chain 1 W33Q | ≥ 10 | 1.01
40 | chain 1 W33V | ≥ 10 | 0.944
41 | chain 1 W33Y | ≥ 10 | 0.976
42 | chain 1 W108P G109A | 3.2 | 0.41
43 | chain 1 W108P G109N | ≥ 10 | 0.473
44 | chain 1 W33R V37D | 0.205 | 1.19
45 | chain 1 W33R V37W | ≥ 10 | 0.543
46 | chain 1 W33V N35Q | ≥ 10 | 0.772
47 | chain 1 W33V N35T | ≥ 10 | 0.89
48 | chain 1 W108M G109E | 0.0944 | 0.408
49 | chain 1 W108A G109C | ≥ 10 | 0.197
50 | chain 1 W108A G109H | ≥ 10 | 0.356

Row | Variant | Kd (fluorescein) [µM] | yeast surface expression [1]
51 | chain 1 W33S N35I | ≥ 10 | 0.495
52 | chain 1 W33Y M34I | ≥ 10 | 0.771
53 | chain 1 W36H V37E | ≥ 10 | 0.267
54 | chain 1 W36H V37F | ≥ 10 | 0.307
55 | chain 1 W36D V37M | ≥ 10 | 1.25
56 | chain 1 W36D V37H | ≥ 10 | 0.21
57 | chain 1 W36M V37W | ≥ 10 | 0.496
58 | chain 1 W36M V37P | ≥ 10 | 0.36
59 | chain 1 W36M V37S | ≥ 10 | 0.415
60 | chain 1 W36G V37Q | ≥ 10 | 1.13
61 | chain 1 W36G V37N | ≥ 10 | 0.597
62 | chain 1 W108H G109C | ≥ 10 | 0.362
63 | chain 1 W108K G109L | ≥ 10 | 0.219
64 | chain 1 W108K G109H | ≥ 10 | 0.44
65 | chain 1 W108C G109E | ≥ 10 | 0.262
66 | chain 1 W33T N35Q | ≥ 10 | 0.887
67 | chain 1 W33R M34D | ≥ 10 | 0.356
68 | chain 1 W33R M34I | ≥ 10 | 0.644
69 | chain 1 W36K V37N | 0.0592 | 0.168
70 | chain 1 W36K V37H | ≥ 10 | 0.773
71 | chain 1 Y32D | ≥ 10 | 1.04
72 | chain 1 Y32C | 0.143 | 1.05
73 | chain 1 Y32A | 0.00993 | 1.15

Further lines, with some results ahead:

Row | Kd (fluorescein) [µM] | Variant | yeast surface expression [1]
74 | 5.66 | chain 1 Y32I M34F | 0.871
75 | ≥ 10 | chain 1 Y32I M34S | 0.65
76 | ≥ 10 | chain 1 Y32I M34A | 0.821
77 | 0.00142 | chain 1 Y32F V37C | 0.914
78 | 0.0125 | chain 1 Y32F V37I | 0.835
79 | ≥ 10 | chain 1 Y32K M34C | 0.91
80 | ≥ 10 | chain 1 Y32M M34Q | 0.437
81 | ≥ 10 | chain 1 Y32L W36Q | 0.875
82 | 3.74 | chain 1 Y32L W36Y | 0.682
83 | ≥ 10 | chain 1 Y32L W36F | 0.728
84 | ≥ 10 | chain 1 Y32M W33V | 0.941
85 | ≥ 10 | chain 1 Y32M W33E | 1.18
86 | ≥ 10 | chain 1 Y32G M34C | 0.676
87 | ≥ 10 | chain 1 Y32G M34N | 0.613
88 | ≥ 10 | chain 1 Y32G M34E | 0.194
89 | ≥ 10 | chain 1 Y32G M34P | 0.545
90 | ≥ 10 | chain 1 Y32H M34H | 0.674
91 | ≥ 10 | chain 1 Y32H M34Q | 0.862
92 | ≥ 10 | chain 1 Y32L N35F | 0.363
93 | ≥ 10 | chain 1 Y32G W36H | 0.209
94 | ≥ 10 | chain 1 Y32P M34N | 0.503
95 | ≥ 10 | chain 1 Y32E M34I | 0.733

Row | Kd (fluorescein) [µM] | Variant | yeast surface expression [1]
96 | ≥ 10 | chain 1 Y32I W36G | 0.465
97 | ≥ 10 | chain 1 Y32I W36Y | 0.612
98 | 0.0391 | chain 1 Y32I W36P | 0.723
99 | ≥ 10 | chain 1 Y32L M34T W36I | 0.622
100 | ≥ 10 | chain 1 Y32E N35G | 1
101 | ≥ 10 | chain 1 Y32E N35S | 0.87
102 | ≥ 10 | chain 1 Y32K N35R | 0.103
103 | ≥ 10 | chain 1 Y32G W33A | 0.708
104 | ≥ 10 | chain 1 Y32G W33N | 0.799
105 | 0.00352 | chain 1 Y32F | 0.989
106 | 0.435 | chain 1 Y32L | 0.893
107 | ≥ 10 | chain 1 Y32E | 0.927
108 | 1.63 | chain 1 Y32G | 0.961
109 | 0.972 | chain 1 Y32M | 1.03
110 | 0.0265 | chain 1 Y32H | 1.03
111 | ≥ 10 | chain 1 Y32N | 1.21
112 | ≥ 10 | chain 1 Y32P | 0.908
113 | ≥ 10 | chain 1 Y32I | 0.938
114 | 1.67 | chain 1 Y32K | 0.804
115 | ≥ 10 | chain 1 Y32H V37T | 0.874
116 | ≥ 10 | chain 1 Y32H V37Q | 0.372
